B1: SEB aptamer (ssDNA)
DNA: GGTATTGAGGGTCGCATCCACTGGTCGTTGTTGTCTGTTGTCTGTTATGTTGTTTCGTGATGGCTCTAACTCTCCTCT
B2: SEB aptamer1 (6-FAM) (ssDNA)
DNA: GGTATTGAGGGTCGCATCCACTGGTCGTTGTTGTCTGTTGTCTGTTATGTTGTTTCGTGATGGCTCTAACTCTCCTCT

Molecular target: Staphylococcal enterotoxin B (SEB) (Staphylococcus aureus, UniProt P01552 28-266)
Sequence (P01552 28-266): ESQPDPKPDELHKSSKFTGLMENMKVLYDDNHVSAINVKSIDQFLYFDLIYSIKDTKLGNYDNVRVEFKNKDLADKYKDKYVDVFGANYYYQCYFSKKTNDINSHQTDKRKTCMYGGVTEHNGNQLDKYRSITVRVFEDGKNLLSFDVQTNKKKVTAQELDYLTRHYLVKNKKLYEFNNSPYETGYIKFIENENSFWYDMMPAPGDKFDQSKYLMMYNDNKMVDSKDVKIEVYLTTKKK

Binder | binding result
B1 | binds
B2 | binds
